Laboratory results published in patent publication US20260176683A1 (RIJKSUNIVERSITEIT GRONINGEN, published 2026).

B1: YaxAΔ40BN-strepII-70aa-flex nanopore (other)
chain 1: […]
chain 2: MSYYHHHHHHDYDIPTTENLYFQGWSHPQFEKGSSGSTSNASAGTGSATGSNSTAGASSGNSAGTGTSSGSTGSANSSAGTGSGSATASAGNSGTSTAGNSTAEISTFPHSGLSYPDINFKIFSQGVKNISHLAQFKTTGVEVLQEKALRVSLYSQRLDVIVRESLSSLQVKLENTLALTYFTTLEEIDEALISQDIDEESKSEMRKERINIIKNLSNDITQLKQLFIEKTELLDKSSSDLHNVVIIEGTDKVLQAEQLRQKQLTEDIATKELERKEIEKKRDKIIEALDVIREHNLVDAFKDLIPTGENLSELDLAKPEIELLKQSLEITKKLLGQFSEGLKYIDLTDARKKLDNQIDTASTRLTELNRQLEQSEKLIAGVNAIIKIDQEKSAVVVEAEKLSRAWHIFIHEITALQGTSLNEVELSKPLIKQQIYLESLIKQLI
B2: His6-TEV-YaxA (full-length YaxA monomer) (other)
chain: MSYYHHHHHHDYDIPTTENLTRSSENLYFQSGGTQTQLAIDNVLASAESTIQLNELPKVVLDFITGEQTSVARSGGIFTKEDLINLKLYVRKGLSLPTRQDEVEAYLGYKKIDVAGLEPKDIKLLFDEIHNHALNWNDVEQAVLQQSLDLDIAAKNIISTGNEIINLINQMPITLRVKTLLGDITDKQLENITYESADHEVASALKDILDDMKGDINRHQTTTENVRKKVSDYRITLTGGELSSGDKVNGLEPQVKTKYDLMEKSNMRKSIKELDEKIKEKRQRIEQLKKDYDKFVGLSFTGAIGGIIAMAITGGIFGAKAENARKEKNALISEVAELESKVSSQRALQTALEALSLSFSDIGIRMVDAESALNHLDFMWLSVLNQITESQIQFAMINNALRLTSFVNKFQQVITPWQSVGDSARQLVDIFDEAIKEYKKVYG

Experiments:
C-reactive protein = target: T1, C-reactive protein (UniProt P02741 19-224); test: single-nanopore electrophysiology, CRP added to cis
T1 construct: also called CRP
T1 sequence: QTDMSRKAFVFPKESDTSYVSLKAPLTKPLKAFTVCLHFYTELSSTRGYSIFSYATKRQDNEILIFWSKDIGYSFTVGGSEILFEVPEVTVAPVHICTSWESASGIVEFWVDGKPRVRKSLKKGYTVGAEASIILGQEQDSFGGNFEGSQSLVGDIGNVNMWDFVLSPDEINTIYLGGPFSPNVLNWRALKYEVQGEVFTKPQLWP

[1] = target: His6-TEV-YaxB (full-length YaxB monomer) (Yersinia enterocolitica); test: 1:1 mixing of monomers, SEC, insertion into lipid bilayers

Binder	binding result (C-reactive protein)	binding result [1]
B1	no binding (tested: 20 nM CRP)	
B2		binds
